Results on 1 molecule are retold here after patent US20240262906A1 (WELLMARKER BIO, published 2024).

The target of the assay is T1, IGSF1 overexpressed on cells (NCI-H292 IGSF1 O/E; HEK293E IGSF1 O/E) (human, UniProt Q8N6C5 581-1336).
T1 construct: Membrane protein expressed from a commercial vector (OriGene RC209621); also called IGSF1 antigen in cells
T1 sequence: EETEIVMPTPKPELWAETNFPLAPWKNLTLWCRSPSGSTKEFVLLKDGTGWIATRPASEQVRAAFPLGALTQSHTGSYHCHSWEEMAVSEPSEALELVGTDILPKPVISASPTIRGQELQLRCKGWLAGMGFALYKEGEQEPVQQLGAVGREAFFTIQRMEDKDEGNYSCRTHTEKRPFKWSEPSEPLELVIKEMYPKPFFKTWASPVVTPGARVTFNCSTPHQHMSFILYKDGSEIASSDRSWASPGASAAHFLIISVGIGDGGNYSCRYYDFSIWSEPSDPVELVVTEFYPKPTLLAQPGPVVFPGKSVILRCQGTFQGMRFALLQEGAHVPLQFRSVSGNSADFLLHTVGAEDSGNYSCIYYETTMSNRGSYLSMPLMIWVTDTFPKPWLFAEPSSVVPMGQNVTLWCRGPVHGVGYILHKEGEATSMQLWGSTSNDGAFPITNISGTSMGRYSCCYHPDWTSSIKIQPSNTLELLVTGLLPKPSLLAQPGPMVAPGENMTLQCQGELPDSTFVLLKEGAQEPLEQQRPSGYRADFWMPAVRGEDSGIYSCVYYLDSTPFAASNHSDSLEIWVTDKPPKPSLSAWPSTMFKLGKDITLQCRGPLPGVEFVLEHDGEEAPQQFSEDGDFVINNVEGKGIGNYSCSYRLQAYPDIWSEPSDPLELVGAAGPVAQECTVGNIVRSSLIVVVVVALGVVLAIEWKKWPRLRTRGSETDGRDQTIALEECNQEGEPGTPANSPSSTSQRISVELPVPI
Put plainly: flow cytometry on NCI-H292 IGSF1 O/E cells, FITC anti-human IgG detection. As for the experimental part: Specifically, the medium of NCI-H292 IGSF1 O/E cells and NCI-H292 MOCK cells was removed, washed once with PBS, and then treated with 2 ml of 0.25% trypsin-EDTA, and the cells were isolated. The isolated cells were diluted with 8 ml of PBS (hereinafter referred to as FACS buffer) containing 2% FBS and 0.05% sodium azide, and then the supernatant was removed by centrifugation at 1,200 rpm for 1 minute. Then, the cells were resuspended in FACS buffer to 1×10⁵ cells/ml. Thereafter, 1 ml of each was dispensed in a FACS tube, and the supernatant was removed by centrifugation at 1,200 rpm for 1 minute.
After the reaction was completed, 1 ml of FACS buffer was added to each tube, and the supernatant was removed by centrifugation at 1,200 rpm for 1 minute. This process was performed a total of two times. […]
Finally, after removal of the supernatant, the remaining pellet was resuspended in 200 μl of FACS buffer and analyzed by FACS. For FACS analysis, FITC fluorescence value labeled in each cell was measured using a BD LSRFortessa™ flow cytometer, and then the results were analyzed using a FlowJo software, and EC50 value was calculated using a sigma plot program. […]

B1: WM-A1-3389 antibody (antibody, human IgG1, kappa, V domains shown)
VH: QVQLVQSGAEVKRPGSSVKVSCKASGGTFSTYAISWVRQAPGQGLEWMGRIIPFVGTVDYAQKFQDRVTITADKSTNTAYMELSSLRSEDTAVYYCVRDGGRSYFDSWGPGILVTVSS
VL: QFVLTQPPSVSAAPGQDVIISCSGNTSNIGSNLVSWFQQFPETAPKLLIYDNHKRPSGISDRFSGTKSGTSASLAISGLQSEDEADYYCVAWDDSLNGYVFGTGTKVTVLR
notes: Human antibody from a phage library, converted to whole IgG; also called anti-IGSF1 antibody
In the case of B1, the EC50 was roughly 69 nM.

As a reminder, the EC50 is the concentration needed to bring the measured effect to its halfway point.
